Changes are numbered by the printed parent chain. In names and notes the source's numbering stands.
B1: GLP-1(A8G/G22E/R36G)-TNCfn3-p246-COL18NC1 (ligand)
chain: HGEGTFTSDVSSYLEEQAAKEFIAWLVKGGGSGGGSGGGSGGGSGGGSGSGGRLDAPSQIEVKDVTDTTALITWFKPLAEIDGIELTYGIKDVPGDRTTIDLTEDENQYSIGNLKPDTEYEVSLISRRGDMSSNPAKETFTTGGGGSGGGSGSGSESGSGGGSTSSGTGSETESPGSGSESGSGPSSAGSGSGSESGSGSGSSGPGSTGGSGSESGSGPGSSGTGGTATGSGSESGSGPGSSGPGSTGSGSGSESGSGSGSSGTGSTGGSGSESGSGPGSPRPGSTGTGSGSESGSGPGSSERGSAGGSGSESGSGTSESSASGSTGGSGSESGSGSESGSGSGSESGSGPESPGSGGSGSESGSGTSGSTGSGSESGSGGGSGGGSGGGASSGVRLWATRQAMLGQVHEVPEGWLIFVAEQEELYVRVQNGFRKVQLEARTPLPRG
B2: GLP-1-Fn7-COL18NC1 (ligand)
chain: HAEGTFTSDVSSYLEGQAAKEFIAWLVKGRGGGGSGGGGTPLSPPTNLHLEANPDTGVLTVSWERSTTPDITGYRITTTPTNGQQGNSLEEVVHADQSSCTFDNLSPGLEYNVSVYTVKDDKESVPISDTIIPAGGGSGGGASSGVRLWATRQAMLGQVHEVPEGWLIFVAEQEELYVRVQNGFRKVQLEARTPLPRG
B3: GLP1(A8G/G22E/R36G)-Fn8-p246-ACRP30 (ligand)
chain: HGEGTFTSDVSSYLEEQAAKEFIAWLVKGGGSGGGSGGGSGGGSGGGSGSGGAVPPPTDLRFTNIGPDTMRVTWAPPPSIDLTNFLVRYSPVKNEEDVAELSISPSDNAVVLTNLLPGTEYVVSVSSVYEQHESTPLRGRQKTGGGGSGGGSGSGSESGSGGGSTSSGTGSETESPGSGSESGSGPSSAGSGSGSESGSGSGSSGPGSTGGSGSESGSGPGSSGTGGTATGSGSESGSGPGSSGPGSTGSGSGSESGSGSGSSGTGSTGGSGSESGSGPGSPRPGSTGTGSGSESGSGPGSSERGSAGGSGSESGSGTSESSASGSTGGSGSESGSGSESGSGSGSESGSGPESPGSGGSGSESGSGTSGSTGSGSESGSGGGSGGGSGGVYRSAFSVGLETRVTVPNVPIRFTKIFYNQQNHYDGSTGKFYCNIPGLYYFSYHITVYMKDVKVSLFKKDKAVLFTYDQYQEKNVDQASGSVLLHLEVGDQVWLQVYGDGDHNGLYADNVNDSTFTGFLLYHDTN
B4: GLP-1(A8G/G22E/R36G)-Fn8-p271-COL18NC1 (ligand)
chain: HGEGTFTSDVSSYLEEQAAKEFIAWLVKGGGSGGGSGGGSGGGSGGGSGSGGAVPPPTDLRFTNIGPDTMRVTWAPPPSIDLTNFLVRYSPVKNEEDVAELSISPSDNAVVLTNLLPGTEYVVSVSSVYEQHESTPLRGRQKTGGGGSGGGSGGSGSESGSGGGSTSSGTGSETESPGGSGSESGSGGPSSAGSGGSGSESGSGGSGSSGPGSTGGGSGSESGSGGPGSSGTGGTATGGSGSESGSGGPGSSGPGSTGSGGSGSESGSGGSGSSGTGSTGGGSGSESGSGGPGSPRPGSTGTGGSGSESGSGGPGSSERGSAGGGSGSESGSGGTSESSASGSTGGGSGSESGSGGSESGSGGSGSESGSGGPESPGSGGGSGSESGSGGTSGSTGGSGSESGSGGGGSGGGSGGGASSGVRLWATRQAMLGQVHEVPEGWLIFVAEQEELYVRVQNGFRKVQLEARTPLPRG
B5: GLP-1(A8G/G22E/R36G)-Fn8-p246-COL15NC1 (ligand)
chain: HGEGTFTSDVSSYLEEQAAKEFIAWLVKGGGSGGGSGGGSGGGSGGGSGSGGAVPPPTDLRFTNIGPDTMRVTWAPPPSIDLTNFLVRYSPVKNEEDVAELSISPSDNAVVLTNLLPGTEYVVSVSSVYEQHESTPLRGRQKTGGGGSGGGSGSGSESGSGGGSTSSGTGSETESPGSGSESGSGPSSAGSGSGSESGSGSGSSGPGSTGGSGSESGSGPGSSGTGGTATGSGSESGSGPGSSGPGSTGSGSGSESGSGSGSSGTGSTGGSGSESGSGPGSPRPGSTGTGSGSESGSGPGSSERGSAGGSGSESGSGTSESSASGSTGGSGSESGSGSESGSGSGSESGSGPESPGSGGSGSESGSGTSGSTGSGSESGSGGGSGGGSGGNLVTAFSNMDDMLQKAHLVIEGTFIYLRDSTEFFIRVRDGWKKLQLGELIPIPA
B6: GLP-1(A8G/G22E)-Fn8-p246-COL18NC1 (ligand)
chain: HGEGTFTSDVSSYLEEQAAKEFIAWLVKGRGSGGGSGGGSGGGSGGGSGSGGAVPPPTDLRFTNIGPDTMRVTWAPPPSIDLTNFLVRYSPVKNEEDVAELSISPSDNAVVLTNLLPGTEYVVSVSSVYEQHESTPLRGRQKTGGGGSGGGSGSGSESGSGGGSTSSGTGSETESPGSGSESGSGPSSAGSGSGSESGSGSGSSGPGSTGGSGSESGSGPGSSGTGGTATGSGSESGSGPGSSGPGSTGSGSGSESGSGSGSSGTGSTGGSGSESGSGPGSPRPGSTGTGSGSESGSGPGSSERGSAGGSGSESGSGTSESSASGSTGGSGSESGSGSESGSGSGSESGSGPESPGSGGSGSESGSGTSGSTGSGSESGSGGGSGGGSGGGASSGVRLWATRQAMLGQVHEVPEGWLIFVAEQEELYVRVQNGFRKVQLEARTPLPRG
B7: GLP-1(A8G/G22E/R36S)-Fn8-p246-COL18NC1 (ligand)
chain: B6 chain with R30S
B8: GLP-1(A8S/G22E)-Fn8-p246-COL18NC1 (ligand)
chain: B6 chain with G2S
B9: GLP-1(A8G/G22E/R36G)-Fn8-p246-COL18NC1 (ligand)
chain: B6 chain with R30G
B10: GLP-1(A8V/G22E)-Fn8-p246-COL18NC1 (ligand)
chain: B6 chain with G2V
B11: GLP-1-Fn8-COL18NC1 (ligand)
chain: HAEGTFTSDVSSYLEGQAAKEFIAWLVKGRGGGGSGGGGSAVPPPTDLRFTNIGPDTMRVTWAPPPSIDLTNFLVRYSPVKNEEDVAELSISPSDNAVVLTNLLPGTEYVVSVSSVYEQHESTPLRGRQKTGGGGSGGGASSGVRLWATRQAMLGQVHEVPEGWLIFVAEQEELYVRVQNGFRKVQLEARTPLPRG
B12: GLP-1(A8V/G22E)-Fn8-COL18NC1 (ligand)
chain: B11 chain with A2V, G16E
B13: GLP-1(A8G/G22E)-Fn8-COL18NC1 (ligand)
chain: B11 chain with A2G, G16E
B14: GLP-1(A8G/G22E/R36G)-Fn8-COL18NC1 (ligand)
chain: B11 chain with A2G, G16E, R30G
B15: GLP-1(A8S/G22E)-Fn8-COL18NC1 (ligand)
chain: B11 chain with A2S, G16E
B16: GLP-1(A8G/G22E/R36G)-Fn8-p245-COL18NC1 (ligand)
chain: HGEGTFTSDVSSYLEEQAAKEFIAWLVKGGGSGGGSGGGSGGGSGGGSGSGGAVPPPTDLRFTNIGPDTMRVTWAPPPSIDLTNFLVRYSPVKNEEDVAELSISPSDNAVVLTNLLPGTEYVVSVSSVYEQHESTPLRGRQKTGGGGSGGGSGSGSTSESGGSTSSGTGSETESPGSGSESTSGPSSAGSGSTSESGSGSGSSGPGSTGGSTSGSESGPGSSGTGGTATGSESGSTSGPGSSGPGSTGSGSTSESGSGSGSSGTGSTGGSESGSTSGPGSPRPGSTGTGSTSGSESGPGSSERGSAGGSESTSGSGTSESSASGSTGGSTSGSESGSESGSGSTSESGSGPESPGSGGSGSTSESGTSGSTGSESTSGSGGGSGGGSGGGASSGVRLWATRQAMLGQVHEVPEGWLIFVAEQEELYVRVQNGFRKVQLEARTPLPRG
B17: GLP-1(A8G/G22E/R36G)-Fn8-p246-COL19NC2 (ligand)
chain: HGEGTFTSDVSSYLEEQAAKEFIAWLVKGGGSGGGSGGGSGGGSGGGSGSGGAVPPPTDLRFTNIGPDTMRVTWAPPPSIDLTNFLVRYSPVKNEEDVAELSISPSDNAVVLTNLLPGTEYVVSVSSVYEQHESTPLRGRQKTGGGGSGGGSGSGSESGSGGGSTSSGTGSETESPGSGSESGSGPSSAGSGSGSESGSGSGSSGPGSTGGSGSESGSGPGSSGTGGTATGSGSESGSGPGSSGPGSTGSGSGSESGSGSGSSGTGSTGGSGSESGSGPGSPRPGSTGTGSGSESGSGPGSSERGSAGGSGSESGSGTSESSASGSTGGSGSESGSGSESGSGSGSESGSGPESPGSGGSGSESGSGTSGSTGSGSESGSGGGSGGGSGGGIPADAVSFEEIKKYINQEVLRIFEERMAVFLSQLKLPAAMLAAQAYGRP
B18: GLP-1(A8G/G22E/R36G)-Fn8-p285-COL18NC1 (ligand)
chain: HGEGTFTSDVSSYLEEQAAKEFIAWLVKGGGSGGGSGGGSGGGSGGGSGSGGAVPPPTDLRFTNIGPDTMRVTWAPPPSIDLTNFLVRYSPVKNEEDVAELSISPSDNAVVLTNLLPGTEYVVSVSSVYEQHESTPLRGRQKTGGGGSGGGSGSGSESGSGGGSTSSGTGSETESPGSGSESGSGPSSAGSGSGSESGSGSGSSGPGSTGGSGSESGSGPGSSGTGGTATGSGSESGSGPGSSGPGSTGSGSGSESGSGSGSSGTGSTGGSGSESGSGPGSPRPGSTGTGSGSESGSGPGSSERGSAGGSGSESGSGTSESSASGSTGGSGSESGSGSESGSGSGSESGSGPESPGSGGSGSESGSGTSGSTGSGSESGSGPGSSGPGSTGSGSGSESGSGSGSSGTGSTGGSGSESGSGGGSGGGSGGGASSGVRLWATRQAMLGQVHEVPEGWLIFVAEQEELYVRVQNGFRKVQLEARTPLPRG

These binders were tested against human GLP-1 receptor (GLP-1R) (human, UniProt P43220 24-463) (assay: cell-based or functional assay).

Compared with B1, B2 is 4.4-fold higher in “EC50 (nM) measured by cAMP assay” value: 0.5 nM for the first, 2.2 nM for the second.

B3 and B4 are within 1.5-fold of each other in “EC50 (nM) measured by cAMP assay” value: 0.6 nM for the first, 0.4 nM for the second.

B5 and B6 are the same in “EC50 (nM) measured by cAMP assay” value: 0.5 nM for the first, 0.5 nM for the second.

B7 and B8 are within 1.5-fold of each other in “EC50 (nM) measured by cAMP assay” value: 0.4 nM for the first, 0.6 nM for the second.

B9 and B10 are within 1.5-fold of each other in “EC50 (nM) measured by cAMP assay” value: 0.4 nM for the first, 0.5 nM for the second.

Compared with B11, B12 is 1.6-fold lower in “EC50 (nM) measured by cAMP assay” value: 2.1 nM for the first, 1.3 nM for the second.

B13 and B14 are within 1.5-fold of each other in “EC50 (nM) measured by cAMP assay” value: 1.3 nM for the first, 1.2 nM for the second.

Compared with B15, B16 is 2.6-fold lower in “EC50 (nM) measured by cAMP assay” value: 1.3 nM for the first, 0.5 nM for the second.

B17 and B18 are within 1.5-fold of each other in “EC50 (nM) measured by cAMP assay” value: 0.6 nM for the first, 0.4 nM for the second.

Source: patent US10246503B2, “Method of improving the pharmacokinetic profile of a therapeutic polypeptide and the use thereof” (BEIJING ANXINHUAIDE BIOTECH. CO., LTD, priority 2012, dated 2019)
